B1: Flag-tagged full-length GRF4 (protein)
chain: MKPLAIPANHGVMGQQEKHSLPADFTKLHLTDSLHPQVTHVSSSHSGCSITSDSGSSSLSDIYQATESEAGDMDLSGLPETAVDSEDDDDEEDIERASDPLMSRDIVRDCLEKDPIDRTDDDIEQLLEFMHQLPAFANMTMSVRRELCAVMVFAVVERAGTIVLNDGEELDSWSVILNGSVEVTYPDGKAEILCMGNSFGVSPTMDKEYMKGVMRTKVDDCQFVCIAQQDYCRILNQVEKNMQKVEEEGEIVMVKEHRELDRTGTRKGHIVIKGTSERLTMHLVEEHSVVDPTFIEDFLLTYRTFLSSPMEVGKKLLEWFNDPSLRDKVTRVVLLWVNNHFNDFEGDPAMTRFLEEFENNLEREKMGGHLRLLNIACAAKAKRRLMTLTKPSREAPLPFILLGGSEKGFGIFVDSVDSGSKATEAGLKRGDQILEVNGQNFENIQLSKAMEILRNNTHLSITVKTNLFVFKELLTRLSEEKRNGAPHLPKIGDIKKASRYSIPDLAVDVEQVIGLEKVNKKSKANTVGGRNKLKKILDKTRISILPQKPYNDIGIGQSQDDSIVGLRQTKHIPTALPVSGTLSSSNPDLLQSHHRILDFSATPDLPDQVLRVFKADQQSRYIMISKDTTAKEVVIQAIREFAVTATPDQYSLCEVSVTPEGVIKQRRLPDQLSKLADRIQLSGRYYLKNNMETETLCSDEDAQELLRESQISLLQLSTVEVATQLSMRNFELFRNIEPTEYIDDLFKLRSKTSCANLKRFEEVINQETFWVASEILRETNQLKRMKIIKHFIKIALHCRECKNFNSMFAIISGLNLAPVARLRTTWEKLPNKYEKLFQDLQDLFDPSRNMAKYRNVLNSQNLQPPIIPLFPVIKKDLTFLHEGNDSKVDGLVNFEKLRMIAKEIRHVGRMASVNMDPALMFRTRKKKWRSLGSLSQGSTNATVLDVAQTGGHKKRVRRSSFLNAKKLYEDAQMARKVKQYLSNLELEMDEESLQTLSLQCEPATNTLPKNPGDKKPVKSETSPVAPRAGSQQKAQSLPQPQQQPPPAHKINQGLQVPAVSLYPSRKKVPVKDLPPFGINSPQALKKILSLSEEGSLERHKKQAEDTISNASSQLSSPPTSPQSSPRKGYTLAPSGTVDNFSDSGHSEISSRSSIVSNSSFDSVPVSLHDERRQRHSVSIVETNLGMGRMERRTMIEPDQYSLGSYAPMSEGRGLYATATVISSPSTEELSQDQGDRASLDAADSGRGSWTSCSSGSHDNIQTIQHQRSWETLPFGHTHFDYSGDPAGLWASSSHMDQIMFSDHSTKYNRQNQSRESLEQAQSRASWASSTGYWGEDSEGDTGTIKRRGGKDVSIEAESSSLTSVTTEETKPVPMPAHIAVASSTTKGLIARKEGRYREPPPTPPGYIGIPITDFPEGHSHPARKPPDYNVALQRSRMVARSSDTAGPSSVQQPHGHPTSSRPVNKPQWHKPNESDPRLAPYQSQGFSTEEDEDEQVSAV
B2: Isolated CDC25 domain of GRF4 (protein)
chain: SLLQLSTVEVATQLSMRNFELFRNIEPTEYIDDLFKLRSKTSCANLKRFEEVINQETFWVASEILRETNQLKRMKIIKHFIKIALHCRECKNFNSMFAIISGLNLAPVARLRTTWEKLPNKYEKLFQDLQDLFDPSRNMAKYRNVLNSQNLQPPIIPLFPVIKKDLTFLHEGNDSKVDGLVNFEKLRMIAKEIRHVGRMASVNMDPALMFRTRKKKWRSLGSLSQGSTNATVLDVAQTGGHKKRVRRSSFLNAKKLYEDAQMARKVKQYLSNLELEMDEESLQTLSLQCEPATNT

How the values were obtained:
[1] = biological target: Endogenous Ras of HEK-293T cells

Chain of GST-Ras [GST: P08515] (P08515 whole entry, looked up): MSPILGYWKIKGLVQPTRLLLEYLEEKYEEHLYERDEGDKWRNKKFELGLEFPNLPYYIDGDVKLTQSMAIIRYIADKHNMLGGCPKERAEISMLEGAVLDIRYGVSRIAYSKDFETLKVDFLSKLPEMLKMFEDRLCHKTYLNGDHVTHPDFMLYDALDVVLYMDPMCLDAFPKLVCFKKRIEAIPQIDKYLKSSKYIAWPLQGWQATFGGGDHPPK

| Protein | fold Ras activation in vitro (bound 32P-GTP, 30 min, against Ras without GRFs set to 1) (GST-Ras [GST: P08515]) | active Ras (Ras-GTP) precipitated with GST-Raf1-RBD from HEK-293T lysates [1] | Ras activation in vitro (GEF assay) (GST-Ras [GST: P08515]) |
| --- | --- | --- | --- |
| B1 | ˜2.9 fold activation in 30 min. | heterologous expression of GRF4 in HEK-293T cells led to a weak activation of endogenous Ras, which was greatly enhanced following stimulation of cells with ... 8-Br-cAMP | – |
| B2 | – | – | we were unable to demonstrate significant activation of Ras by the isolated CDC25 domain of GRF4 |

From patent US20020143164
